Measurements: US20150315289A1
Blank lines part the entries; values can stand above or below the substance they belong to.

Assays:
[1] = molecular target: human MUC5AC (native mucin) (human) (UniProt P98088); test: inhibition EIA on CPM1-coated plates; competitor hPAM4 at […]
[2] = molecular target: human MUC5AC (native mucin) (human) (UniProt P98088); test: sandwich EIA: hPAM4 capture of antigen from CPM1, murine MAb probe at 10 µg/mL
[3] = molecular target: human MUC5AC (native mucin) (human) (UniProt P98088); test: ELISA on target mucin antigen
[4] = molecular target: human MUC5AC (native mucin) (human) (UniProt P98088); test: elution analysis of 111In-IMP-288/TF10 with excess mucin
[5] = molecular target: human MUC5AC (native mucin) (human) (UniProt P98088); test: binding of radioiodinated TF10 to MUC5AC (not shown)
[6] = molecular target: IMP-288 di-HSG hapten-peptide; test: elution analysis of radiolabeled peptide with TF10 (not shown)

ICmax (maximal inhibition) [1]: 25.5% | Kd [2]: 14.3 µg/mL
Substance: 45M1 anti-MUC5AC mouse monoclonal antibody

EC50 [3]: 1.83 nM
Substance: PAM4-F(ab′)2

percent of TF10-bound 111In-IMP-288 eluting at higher molecular weight with excess mucin [4]: 92% | immunoreactive fraction [5]: 87% | percent of 111In-IMP-288 bound [6]: 90%
Substance: TF10 bispecific ([hPAM4]2 x h679) DNL construct (bispecific antibody)
